Test [1] concerns the target T1, biotinylated 10-mer C-terminal PBM peptide of DGKζ (human, UniProt Q13574, biotin attached to the N-terminus via a trioxatridecan-succinamic acid (ttds) linker). The experiment in a line: nHU-MS, printed as pKapp 5.01.
The target of test [2] is T1, biotinylated 10-mer C-terminal PBM …. The experiment in a line: nHU-MS, printed as pKapp 4.98.
Test [3] shares this target. The experiment in a line: nHU-MS, printed as pKapp 5.71.
Test [4] shares this target. The experiment in a line: nHU-MS, printed as pKapp 4.96.

T1 sequence (Q13574 whole entry, looked up, tested part not stated): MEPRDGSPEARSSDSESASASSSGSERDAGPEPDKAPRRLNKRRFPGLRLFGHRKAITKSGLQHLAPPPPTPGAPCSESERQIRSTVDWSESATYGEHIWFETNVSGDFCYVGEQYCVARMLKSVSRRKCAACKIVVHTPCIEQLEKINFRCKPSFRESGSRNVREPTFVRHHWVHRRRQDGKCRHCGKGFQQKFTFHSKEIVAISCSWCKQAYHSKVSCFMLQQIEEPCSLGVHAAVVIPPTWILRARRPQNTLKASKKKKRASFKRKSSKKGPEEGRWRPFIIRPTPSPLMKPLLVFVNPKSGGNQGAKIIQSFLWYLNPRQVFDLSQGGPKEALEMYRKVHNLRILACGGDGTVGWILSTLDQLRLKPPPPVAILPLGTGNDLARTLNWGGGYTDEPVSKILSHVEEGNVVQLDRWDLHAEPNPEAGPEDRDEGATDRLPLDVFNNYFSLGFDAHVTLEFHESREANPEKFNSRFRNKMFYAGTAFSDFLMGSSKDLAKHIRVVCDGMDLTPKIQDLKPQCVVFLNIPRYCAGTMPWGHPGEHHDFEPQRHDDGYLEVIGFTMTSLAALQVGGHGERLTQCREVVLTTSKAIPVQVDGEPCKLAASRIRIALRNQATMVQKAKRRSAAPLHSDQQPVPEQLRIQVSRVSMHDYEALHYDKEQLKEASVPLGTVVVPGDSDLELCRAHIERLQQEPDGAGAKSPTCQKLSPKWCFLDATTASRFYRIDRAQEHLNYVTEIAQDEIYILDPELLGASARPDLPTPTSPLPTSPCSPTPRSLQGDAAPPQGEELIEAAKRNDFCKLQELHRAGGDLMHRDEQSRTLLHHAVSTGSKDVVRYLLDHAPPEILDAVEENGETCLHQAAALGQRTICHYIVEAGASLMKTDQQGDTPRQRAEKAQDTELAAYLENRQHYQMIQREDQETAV

B1: LIN7C (natural protein)
chain: MAALGEPVRLERDICRAIELLEKLQRSGEVPPQKLQALQRVLQSEFCNAVREVYEHVYETVDISSSPEVRANATAKATVAAFAASEGHSHPRVVELPKTEEGLGFNIMGGKEQNSPIYISRIIPGGIADRHGGLKRGDQLLSVNGVSVEGEHHEKAVELLKAAQGKVKLVVRYTPKVLEEMESRFEKMRSAKRRQQT
One may read the Kd as the equilibrium constant for the complex coming apart. Molecule B1 yielded a dissociation constant (Kd) in test [1] of 9.77 µM.

B2: CASK (natural protein)
chain: MADDDVLFEDVYELCEVIGKGPFSVVRRCINRETGQQFAVKIVDVAKFTSSPGLSTEDLKREASICHMLKHPHIVELLETYSSDGMLYMVFEFMDGADLCFEIVKRADAGFVYSEAVASHYMRQILEALRYCHDNNIIHRDVKPHCVLLASKENSAPVKLGGFGVAIQLGESGLVAGGRVGTPHFMAPEVVKREPYGKPVDVWGCGVILFILLSGCLPFYGTKERLFEGIIKGKYKMNPRQWSHISESAKDLVRRMLMLDPAERITVYEALNHPWLKERDRYAYKIHLPETVEQLRKFNARRKLKGAVLAAVSSHKFNSFYGDPPEELPDFSEDPTSSGLLAAERAVSQVLDSLEEIHALTDCSEKDLDFLHSVFQDQHLHTLLDLYDKINTKSSPQIRNPPSDAVQRAKEVLEEISCYPENNDAKELKRILTQPHFMALLQTHDVVAHEVYSDEALRVTPPPTSPYLNGDSPESANGDMDMENVTRVRLVQFQKNTDEPMGITLKMNELNHCIVARIMHGGMIHRQGTLHVGDEIREINGISVANQTVEQLQKMLREMRGSITFKIVPSYRTQSSSCERDSPSTSRQSPANGHSSTNNSVSDLPSTTQPKGRQIYVRAQFEYDPAKDDLIPCKEAGIRFRVGDIIQIISKDDHNWWQGKLENSKNGTAGLIPSPELQEWRVACIAMEKTKQEQQASCTWFGKKKKQYKDKYLAKHNAVFDQLDLVTYEEVVKLPAFKRKTLVLLGAHGVGRRHIKNTLITKHPDRFAYPIPHTTRPPKKDEENGKNYYFVSHDQMMQDISNNEYLEYGSHEDAMYGTKLETIRKIHEQGLIAILDVEPQALKVLRTAEFAPFVVFIAAPTITPGLNEDESLQRLQKESDILQRTYAHYFDLTIINNEIDETIRHLEEAVELVCTAPQWVPVSWVY
Turning to B2, the dissociation constant (Kd) in test [2] worked out at 10.5 µM.

B3: MAGI3 (natural protein)
chain: MSKTLKKKKHWLSKVQECAVSWAGPPGDFGAEIRGGAERGEFPYLGRLREEPGGGTCCVVSGKAPSPGDVLLEVNGTPVSGLTNRDTLAVIRHFREPIRLKTVKPGKVINKDLRHYLSLQFQKGSIDHKLQQVIRDNLYLRTIPCTTRAPRDGEVPGVDYNFISVEQFKALEESGALLESGTYDGNFYGTPKPPAEPSPFQPDPVDQVLFDNEFDAESQRKRTTSVSKMERMDSSLPEEEEDEDKEAINGSGNAENRERHSESSDWMKTVPSYNQTNSSMDFRNYMMRDETLEPLPKNWEMAYTDTGMIYFIDHNTKTTTWLDPRLCKKAKAPEDCEDGELPYGWEKIEDPQYGTYYVDHLNQKTQFENPVEEAKRKKQLGQVEIGSSKPDMEKSHFTRDPSQLKGVLVRASLKKSTMGFGFTIIGGDRPDEFLQVKNVLKDGPAAQDGKIAPGDVIVDINGNCVLGHTHADVVQMFQLVPVNQYVNLTLCRGYPLPDDSEDPVVDIVAATPVINGQSLTKGETCMNPQDFKPGAMVLEQNGKSGHTLTGDGLNGPSDASEQRVSMASSGSSQPELVTIPLIKGPKGFGFAIADSPTGQKVKMILDSQWCQGLQKGDIIKEIYHQNVQNLTHLQVVEVLKQFPVGADVPLLILRGGPPSPTKTAKMKTDKKENAGSLEAINEPIPQPMPFPPSIIRSGSPKLDPSEVYLKSKTLYEDKPPNTKDLDVFLRKQESGFGFRVLGGDGPDQSIYIGAIIPLGAAEKDGRLRAADELMCIDGIPVKGKSHKQVLDLMTTAARNGHVLLTVRRKIFYGEKQPEDDSSQAFISTQNGSPRLNRAEVPARPAPQEPYDVVLQRKENEGFGFVILTSKNKPPPGVIPHKIGRVIEGSPADRCGKLKVGDHISAVNGQSIVELSHDNIVQLIKDAGVTVTLTVIAEEEHHGPPSGTNSARQSPALQHRPMGQSQANHIPGDRSALEGEIGKDVSTSYRHSWSDHKHLAQPDTAVISVVGSRHNQNLGCYPVELERGPRGFGFSLRGGKEYNMGLFILRLAEDGPAIKDGRIHVGDQIVEINGEPTQGITHTRAIELIQAGGNKVLLLLRPGTGLIPDHGDWDINNPSSSNVIYDEQSPLPPSSHFASIFEESHVPVIEESLRVQICEKAEELKDIVPEKKSTLNENQPEIKHQSLLQKNVSKRDPPSSHGHSNKKNLLKVENGVTRRGRSVSPKKPASQHSEEHLDKIPSPLKNNPKRRPRDQSLSPSKGENKSCQVSTRAGSGQDQCRKSRGRSASPKKQQKIEGSKAPSNAEAKLLEGKSRRIAGYTGSNAEQIPDGKEKSDVIRKDAKQNQLEKSRTRSPEKKIKRMVEKSLPSKMTNKTTSKEVSENEKGKKVTTGETSSSNDKIGENVQLSEKRLKQEPEEKVVSNKTEDHKGKELEAADKNKETGRFKPESSSPVKKTLITPGPWKVPSGNKVTGTIGMAEKRQ
B3: the Kd in test [3] came to 1.95 µM. That is a single-digit micromolar value.

B4: SYNJ2BP (natural protein)
chain: MNGRVDYLVTEEEINLTRGPSGLGFNIVGGTDQQYVSNDSGIYVSRIKENGAAALDGRLQEGDKILSVNGQDLKNLLHQDAVDLFRNAGYAVSLRVQHRLQVQNGPIGHRGEGDPSGIPIFMVLVPVFALTMVAAWAFMRYRQQL
B4 returned a Kd in test [4] of 11 µM.

(Values after paper doi:10.1101/2023.06.15.545061 (2023).)
